In paper PMC12062419 (2025):

Molecular target: T1, human migfilin (residues 1-85) Ser12His (human, UniProt Q8WUP2 1-85, Ser12His)
T1 sequence: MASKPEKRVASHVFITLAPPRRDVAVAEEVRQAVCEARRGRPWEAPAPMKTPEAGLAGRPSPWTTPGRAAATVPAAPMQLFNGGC
Test: NMR

- Kd: 4.9 µM
B1: GST-tagged human filamin A domain 21 (FLNa21) labelled with 4-trifluoromethyl-L-phenylalanine at position 2274 (domain or fragment)
chain: GGAHKVRAGGPGLERAEAGVPAEFSIWTREAGAGGLAIFVEGPSKAEISFEDRKDGSCGVAYVVQEPGDYEVSVKFNEEHIPDSPFVVPVASP
modifications: 4-trifluoromethyl-L-phenylalanine (tfmF) at position 2274
